One protein from publication PMC3956076 can be followed below.

Substrate in this data set: Nc1ncnc2c1ncn2[C@@H]1O[C@H](COP(=O)(O)OP(=O)(O)OP(=O)(O)OP(=O)(O)OC[C@H]2O[C@@H](n3cnc4c(N)ncnc43)[C@H](O)[C@@H]2O)[C@@H](O)[C@H]1O
As to the kind of experiment: luciferase bioluminescence assay of liberated ATP. Type of data set: biochemical, Chlamydia trachomatis. The conditions noted are these: 5.0 mM MgCl2, 100 mM Tris-HCl pH 7.5, room temperature.

B1: CT771 (Chlamydia trachomatis L2/434/Bu) (protein)
chain: MMKTKHEYSFGVIPIRFFGTPDRSTLKACFICHTDGKHWGFPKGHAEEKEGPQEAAERELVEETGLGIVNFFPKIFVENYSFNDKEEIFVRKEVTYFLAEVKGEVHADPDEICDVQWLSFQEGLRLLNFPEIRNIVTEADKFVQSYLFAS
Regarding B1, the Km turned out to be 333 ± 27 µM and the kcat is 3.25 ± 0.1 s⁻¹.

As a reminder, the Km is the substrate concentration at which the rate is half of its maximum. In general, kcat refers to the maximal rate divided by the concentration of active sites.
